The RNAGym collection of RNA variant scans (doi:10.1073/pnas.2313332121)

B1: TPR t1 (parent)
chain: GACCAAUCUGCCCUCAGAGCUCGAGAACAUCUUCGGAUGCAGAGGAGGCAGGCUUCGGUGGCGCGAUAGCGCCAACGUCCUCAACCUCCAAUGCAUCCCACCACAUGAUGAUGCCUGAAGAGCCUUGGUUUUUUG

Variants of: B1
Experiment: polymerase ribozyme fitness, log enrichment relative to wild type (log ratio); higher = more active; in vitro selection for triplet polymerase activity
Summary of the method: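 Streptavidin-bead capture of gel-excised extended constructs, followed by RT-PCR, closed a single triplicate in vitro selection round. That round began by annealing PCR-built, transcribed mutant libraries of each subunit of a heterodimeric triplet polymerase ribozyme with a biotinylated primer, the partner subunit and triplets, then incubating them frozen at −7 °C. After Illumina sequencing of inputs and outputs, genotypes needed ≥10 input reads and ≥1 read per output. Fitness is the base-2 logarithm of genotype enrichment over wild-type enrichment, using inverse-variance-weighted replicate averages.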

Variant | polymerase ribozyme fitness (log ratio)
G35A C86G | -5.03
G45C C79A A121G | -0.868
A16G G117C | -3.97
C11G A119G | 0.484
C34U C53U U109G A119U A121C | -6.04
A2G C11G U38G C82G | -4.28
G51A C56A G93A C114U G117U | -6.47
C20G U106C | -4.11
G44U U55A | -0.917
C56U G61U G93A A111U U116C | -4.78
G51C U129A | -5.21
C3U C70A C86U A118U | -1.74
G69U U87C C104A | -0.553
G10U A50C C80U G120U | -0.0895
A6U U112G U130A | 0.321
A29U C72U | -2.19
G42A U78G U87C C114U | -2.18
A5U C72G G117A | -1.96
C31G C53A G60A C94U U106A | -5.77
G10A G52A G60A C79A C115A U132A | -1.53
G69C A121U | 0.369

Variant | polymerase ribozyme fitness (log ratio)
C8G C56G | 0.255
C72A A91C G117C | -4.28
C34U A37C G60C C124A | -3.79
A6G G69U G120U | 0.637
C70U C97U C123G U126A | -0.00382
A5U A43U G63A | -3.99
C97G A118U U126A | -5.69
A37G A121G | 2.3
G39U G128C | -3.25
A43U G93C G117A | -4.2
C4A C13A A27C C123G | -3.14
U7C C34G G69C G120A | -6.41
U116C U133A | -0.508
A6U A18U | -2.27
G110U U129A | -2.53
A50U G51A G60A | -4.34
A26G U30C | -4.29
G44U C49A G77U G120C U130G | -2.08
C22U C28U C88G | -7.29
G71C G120C | 0.219
A26G G36A A108U C123G | -5.15

Variant | polymerase ribozyme fitness (log ratio)
G47A C124U | 0.0616
A6G G17C | -4.39
C13G G51U C72G A111C | -6.15
A50U C72U A74G | -1.22
G45A C56G U87G C114G | -5.48
C53A A74U A95C G120A | -0.291
A24G C40U G71A C114A | -5.13
C80A U116G G120C C123A | -3.59
A5C U7C G63U C94G G113C A118C | -6.82
G10U A84G C86A | -0.969
C73G G113A | -1.29
C11G U112A | 1.42
U32C C49U A95C U133A | -1.67
C62U C82A | -1.44
C72U A95C | -0.818
C20G C62U G113C | -1.25
C22U C56A G69U U78C | -3.41
U7G C70A C72U G93C C115U | -4.07
U21A A46U C53A G63C | -1.83
A6G U112A | 1.64
C99A C124U | -4.66

Variant | polymerase ribozyme fitness (log ratio)
A83U G107A | -5.83
A41G G71C U116G | -3.99
C8G C31A A50C G113U | -5.53
A6G C80U C115G | -1.33
A24C C31G U32G C62U C114G | -8.07
C4A C12A C86G G120U G128C | -1.61
G42A C70A A84U U92C U96A C102G C124G | -6.77
C49A C53A C86A U112G G128A | -3.85
C12G G47C G52A C64U C123A | -3.61
U7G C104A | -2.23
C56G A68G C73A A111G G135U | -6.08
A50C G52U C94A G117A | -6.56
C62U C70U U133A | 0.14
C3G C8G | -0.464
C40U C64U A90C | -1.97
C8G C12G A27U C64U | -1.4
A26U U130A | -3.88
C20G C56U A84G A111C C115G A121C U132A | -3.92
G93A A95G | -1.81
C13G U59A A91U C115U | -4.42
A6U C12A A103U | -4.89
